Measurements as given in publication PMC5428041, “Dynamic equilibrium on DNA defines transcriptional regulation of a multidrug binding transcriptional repressor, LmrR”.

Target: T1, LmrR (Lactococcus lactis, UniProt A2RI36 1-116)
T1 sequence: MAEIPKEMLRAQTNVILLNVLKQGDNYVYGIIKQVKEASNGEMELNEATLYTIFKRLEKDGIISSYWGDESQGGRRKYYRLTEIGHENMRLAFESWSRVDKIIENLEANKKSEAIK
Experiment: ITC; apo; 2 LmrR dimers per DNA; 10 mM NaPi pH 6.8, 100 mM NaCl, 25 C (ITC; same buffer for NMR); 5% DMSO in riboflavin titrations
Details: protein: recombinant; tags: C-terminal His6; chain copies: 4

B1: lmrCD operator 33 bp (dsDNA)
DNA 1: CAATTTAATGTAAAGTAGTTTACATTATTTAAC
DNA 2: GTTAAATAATGTAAACTACTTTACATTAAATTG
**Q.** For B1, which Kd is on record?
**A.** Its Kd is 64 ± 22 nM.
